Source: article PMC3149827 (2011)
One block for each molecule: values may come before it.

How the values were obtained:
[1] = molecular target: Soluble expressed urokinase plasminogen activator receptor; assay: SPR
gC1qR (Homo sapiens) = gC1qR (Homo sapiens) (UniProt Q07021); conditions: cited from earlier work
cytokeratin 1 = molecular target: T1, cytokeratin 1 (Homo sapiens, UniProt P04264); assay: SPR
T1 chain: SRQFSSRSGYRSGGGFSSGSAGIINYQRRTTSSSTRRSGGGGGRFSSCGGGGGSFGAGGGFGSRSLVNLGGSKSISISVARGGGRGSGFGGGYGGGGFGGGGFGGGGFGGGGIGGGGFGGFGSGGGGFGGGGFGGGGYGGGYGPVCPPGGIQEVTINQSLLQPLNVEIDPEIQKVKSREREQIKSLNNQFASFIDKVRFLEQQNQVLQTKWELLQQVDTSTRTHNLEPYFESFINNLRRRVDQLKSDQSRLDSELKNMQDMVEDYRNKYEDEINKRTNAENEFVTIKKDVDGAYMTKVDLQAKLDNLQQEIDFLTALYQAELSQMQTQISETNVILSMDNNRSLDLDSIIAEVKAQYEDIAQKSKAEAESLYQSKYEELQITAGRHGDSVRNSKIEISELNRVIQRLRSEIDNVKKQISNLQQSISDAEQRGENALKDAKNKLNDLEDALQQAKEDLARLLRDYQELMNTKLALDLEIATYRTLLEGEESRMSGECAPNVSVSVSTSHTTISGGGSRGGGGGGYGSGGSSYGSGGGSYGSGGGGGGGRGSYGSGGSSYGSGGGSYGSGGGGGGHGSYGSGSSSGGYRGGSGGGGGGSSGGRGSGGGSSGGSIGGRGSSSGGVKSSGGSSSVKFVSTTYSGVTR

gC1qR (Homo sapiens), sequence (Q07021 74-282): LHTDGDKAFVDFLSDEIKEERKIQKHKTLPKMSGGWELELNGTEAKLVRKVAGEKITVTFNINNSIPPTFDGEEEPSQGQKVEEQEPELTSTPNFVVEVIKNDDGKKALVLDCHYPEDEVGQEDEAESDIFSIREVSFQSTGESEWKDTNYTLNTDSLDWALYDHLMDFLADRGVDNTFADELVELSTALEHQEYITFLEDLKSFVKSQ

- Kd [1]: 0.1 to 1 nM
Molecule: Single-chain urokinase-type plasminogen activator (ligand)

Molecule: cleaved high-molecular-weight kininogen (HKa) (from UniProt P01042)
- Kd (gC1qR (Homo sapiens)): 9 nM

- Kd (cytokeratin 1): ~10 nM
B1: high-molecular-weight kininogen (HK/HKa) (protein)
chain: QESQSEEIDCNDKDLFKAVDAALKKYNSQNQSNNQFVLYRITEATKTVGSDTFYSFKYEIKEGDCPVQSGKTWQDCEYKDAAKAATGECTATVGKRSSTKFSVATQTCQITPAEGPVVTAQYDCLGCVHPISTQSPDLEPILRHGIQYFNNNTQHSSLFMLNEVKRAQRQVVAGLNFRITYSIVQTNCSKENFLFLTPDCKSLWNGDTGECTDNAYIDIQLRIASFSQNCDIYPGKDFVQPPTKICVGCPRDIPTNSPELEETLTHTITKLNAENNATFYFKIDNVKKARVQVVAGKKYFIDFVARETTCSKESNEELTESCETKKLGQSLDCNAEVYVVPWEKKIYPTVNCQPLGMISLMKRPPGFSPFRSSRIGEIKEETTVSPPHTSMAPAQDEERDSGKEQGHTRRHDWGHEKQRKHNLGHGHKHERDQGHGHQRGHGLGHGHEQQHGLGHGHKFKLDDDLEHQGGHVLDHGHKHKHGHGHGKHKNKGKKNGKHNGWKTEHLASSSEDSTTPSAQTQEKTEGPTPIPSLAKPGVTVTFSDFQDSDLIATMMPPISPAPIQSDDDWIPDIQIDPNGLSFNPISDFPDTTSPKCPGRPWKSVSEINPTTQMKESYYFDLTDGLS
modifications: Zn2+
